In publication PMC3298473, “Effects of partner proteins on BCA2 RING ligase activity” (BMC Cancer, 2012):

Experiments:
[1] = target: T1, Recombinant Flag-BCA2, wild type, purified (human, UniProt Q9Y4L5 1-304); experiment: pull-down; purified recombinant Flag-BCA2 (wild type or mutants) incubated with sepharose-immobilised GST control or GST-14-3-3σ from bacterial cell lysates; immunoblot; details: both partners purified
T1 construct: BCA2, a 304 amino acid protein; also called Purified recombinant wild-type BCA2; source: recombinant, purified

[2] = target: T2, Recombinant Flag-BCA2 RING mutant (C228/231A), purified (human, UniProt Q9Y4L5 1-304, C228/231A | C228/231A); experiment: as above; details: both partners purified
T2 construct: BCA2, a 304 amino acid protein, with C228A and C231A in the RING domain (ligase-dead); also called RING mt; source: recombinant, purified
T2 sequence (Q9Y4L5 other isoform, or with tags, fused parts or gaps C228/231A | C228/231A | C228/231A | C228/231A | mutant): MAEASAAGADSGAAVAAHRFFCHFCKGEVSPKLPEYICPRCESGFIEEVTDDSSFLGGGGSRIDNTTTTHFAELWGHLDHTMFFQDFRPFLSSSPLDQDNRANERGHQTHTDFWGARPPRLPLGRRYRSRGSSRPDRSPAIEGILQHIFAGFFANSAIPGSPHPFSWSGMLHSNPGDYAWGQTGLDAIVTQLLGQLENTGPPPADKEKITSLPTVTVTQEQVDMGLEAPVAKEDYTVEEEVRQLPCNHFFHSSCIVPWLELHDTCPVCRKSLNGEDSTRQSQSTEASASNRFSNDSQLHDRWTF

T1 sequence (Q9Y4L5 whole entry): as the sequence (Q9Y4L5 other isoform, or with tags, fused parts or gaps C228/231A | C228/231A | C228/231A | C228/231A | mutant) above, with A228C, A231C counted along it

B1: GST-tagged 14-3-3σ (natural protein, human, UniProt P31947 1-248, looked up)
chain: MERASLIQKAKLAEQAERYEDMAAFMKGAVEKGEELSCEERNLLSVAYKNVVGGQRAAWRVLSSIEQKSNEEGSEEKGPEVREYREKVETELQGVCDTVLGLLDSHLIKEAGDAESRVFYLKMKGDYYRYLAEVATGDDKKRIIDSARSAYQEAMDISKKEMPPTNPIRLGLALNFSVFHYEIANSPEEAISLAKTTFDEAMADLHTLSEDSYKDSTLIMQLLRDNLTLWTADNAGEEGGEAPQEPQS
notes: 14-3-3σ; the GST construct is not described in the methods; also called GST-14-3-3σ; source: bacterial cell lysates, immobilised on sepharose
binding result [1]: binds
binding result [2]: binds
